Experimental findings from paper PMC8455617 (2021) are described below.

“And” between values parts separate entries of the source, which are not always exact repeats. Equal entries are not always repeated.

Assay [1] concerns the target Mitochondrial citrate synthase (CS) (UniProt P00889). Description: Microscale thermophoresis (MST), Monolith NT.115, nano-red excitation, MST power 40%, excitation power 80%. Conditions: 23 °C, 0.1 M potassium phosphate, no further salt stated, 0.1 M potassium phosphate at pH 6, 7 or 8 (the same buffer species at all pH values). On the technique in general: In MST a laser heats a spot of the sample, and binding alters the fluorescence response.

Assay [2] addresses T1, citrate synthase, mitochondrial (Sus scrofa, UniProt P00889).
T1 chain: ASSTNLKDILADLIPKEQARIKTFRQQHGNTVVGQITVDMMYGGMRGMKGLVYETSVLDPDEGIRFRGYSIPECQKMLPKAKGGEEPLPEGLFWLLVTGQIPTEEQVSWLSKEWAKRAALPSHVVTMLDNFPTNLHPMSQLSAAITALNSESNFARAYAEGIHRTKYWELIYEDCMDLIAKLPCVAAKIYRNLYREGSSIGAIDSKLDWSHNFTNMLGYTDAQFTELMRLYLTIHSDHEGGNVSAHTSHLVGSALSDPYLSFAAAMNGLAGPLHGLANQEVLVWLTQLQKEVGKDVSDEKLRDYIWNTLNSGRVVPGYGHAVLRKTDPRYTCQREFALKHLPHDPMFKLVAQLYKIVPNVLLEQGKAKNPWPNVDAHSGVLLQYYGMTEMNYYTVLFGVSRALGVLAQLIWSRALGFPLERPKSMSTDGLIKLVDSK
Description: MST.

Assay [3] addresses T1, citrate synthase, mitochondrial. The assay is described as follows: MST (pH 6).
For assay [4] the target is unchanged. The assay is described as follows: MST (pH 7).

Broadly, the Kd is the concentration at which binding is half-saturated. For the molecule “Mitochondrial malate dehydrogenase (MDH), fluorescently labelled”, the Kd in assay [1] (pH 6) came to 680 ± 50 nM; in assay [1] (pH 7), 1600 ± 450 nM; in assay [1] (pH 8) it was 2290 ± 460 nM.

B1: malate dehydrogenase, mitochondrial (protein)
chain: AKVAVLGASGGIGQPLSLLLKNSPLVSRLTLYDIAHTPGVAADLSHIETRATVKGYLGPEQLPDCLKGCDVVVIPAGVPRKPGMTRDDLFNTNATIVATLTAACAQHCPDAMICIISNPVNSTIPITAEVFKKHGVYNPNKIFGVTTLDIVRANAFVAELKGLDPARVSVPVIGGHAGKTIIPLISQCTPKVDFPQDQLSTLTGRIQEAGTEVVKAKAGAGSATLSMAYAGARFVFSLVDAMNGKEGVVECSFVKSQETDCPYFSTPLLLGKKGIEKNLGIGKISPFEEKMIAEAIPELKASIKKGEEFVKNMK
modifications: 10 mM succinyl-CoA
For B1, in assay [2], the Kd came out at 1970 nM.

B2: malate dehydrogenase, mitochondrial (protein)
chain: B1 chain
modifications: 10 mM succinate
B2: binding in assay [2] was characterised by a dissociation constant (Kd) of 180 nM.

B3: malate dehydrogenase, mitochondrial (protein)
chain: B1 chain
modifications: 10 mM oxaloacetate and NADH
Molecule B3 displayed a Kd in assay [2] of 2010 nM.

B4: malate dehydrogenase, mitochondrial (protein)
chain: B1 chain
modifications: 10 mM ATP
B4: in assay [2], the Kd was 760 nM and 460 nM.

B5: malate dehydrogenase, mitochondrial (protein)
chain: B1 chain
modifications: 10 mM alpha-ketoglutarate
In assay [2], B5 returned a Kd of 1140 nM.

B6: malate dehydrogenase, mitochondrial (protein)
chain: B1 chain
modifications: 1.25 mM ATP
In the case of B6, the Kd in assay [2] was determined as 1060 nM.

B7: malate dehydrogenase, mitochondrial (protein)
chain: B1 chain
modifications: 10 mM NAD+
In assay [2], B7 returned a Kd of 890 nM.

B8: malate dehydrogenase, mitochondrial (protein)
chain: B1 chain
modifications: 10 mM fumarate
B8 came in with a Kd in assay [2] of 1580 nM.

B9: malate dehydrogenase, mitochondrial (protein)
chain: B1 chain
For B9, the figures for the Kd in assay [2], in assay [3] and in assay [4] were 2290 nM, 680 nM and 1600 nM, respectively.

B10: malate dehydrogenase, mitochondrial (protein)
chain: B1 chain
modifications: 10 mM citrate
B10 had a Kd in assay [2] of 25100 nM.

B11: malate dehydrogenase, mitochondrial (protein)
chain: B1 chain
modifications: 10 mM acetyl-CoA
For the molecule B11, the Kd in assay [2] was 1100 nM.

B12: malate dehydrogenase, mitochondrial (protein)
chain: B1 chain
modifications: 10 mM NADH
In turn, B12 registered a Kd in assay [2] of 7500 nM.

B13: malate dehydrogenase, mitochondrial (protein)
chain: B1 chain
modifications: 10 mM AMP
On to B13, for which the Kd in assay [2] was found to be 3100 nM.

B14: malate dehydrogenase, mitochondrial (protein)
chain: B1 chain
modifications: 5 mM ATP
Regarding B14, in assay [2], the equilibrium dissociation constant (Kd) was determined as 770 nM.

B15: malate dehydrogenase, mitochondrial (protein)
chain: B1 chain
modifications: 10 mM malate
For the molecule B15, in assay [2], the Kd is 1850 nM and 1800 nM.

B16: malate dehydrogenase, mitochondrial (protein)
chain: B1 chain
modifications: 10 mM oxaloacetate and acetyl-CoA
The molecule B16 showed a Kd in assay [2] of 520 nM.

B17: malate dehydrogenase, mitochondrial (protein)
chain: B1 chain
modifications: 10 mM ADP
With B17, the Kd in assay [2] stood at 2240 nM.

B18: malate dehydrogenase, mitochondrial (protein)
chain: B1 chain
modifications: 10 mM oxaloacetate
With B18, the Kd in assay [2] turned out to be 2230 nM.

B19: malate dehydrogenase, mitochondrial (protein)
chain: B1 chain
modifications: 10 mM CoA
In assay [2], B19 registered a Kd of 2320 nM.

B20: malate dehydrogenase, mitochondrial (protein)
chain: B1 chain
modifications: 20 mM ATP
Take B20: binding in assay [2] was put at a Kd of 720 nM.
